Measurements taken from patent publication US20060040319A1, “Multiple sensor-containing active modified polypeptides, preparation and uses thereof” (priority 2000, published 2006).
Where no end group is shown, it is not given here.

Assays:
[1] = biological target: T1, GST fusion of mouse c-Abl containing only the SH2 and kinase domains (Mus musculus, UniProt P00520); assay: Kinase assay with truncated c-Abl containing only the SH2 and kinase domains; format: biochemical; conditions: truncated c-Abl, after 60 min
T1 construct: a GST fusion of mouse c-Abl containing only the SH2 and kinase domains; made in house; host or cells: E. coli BL21
T1 sequence (P00520 127-493): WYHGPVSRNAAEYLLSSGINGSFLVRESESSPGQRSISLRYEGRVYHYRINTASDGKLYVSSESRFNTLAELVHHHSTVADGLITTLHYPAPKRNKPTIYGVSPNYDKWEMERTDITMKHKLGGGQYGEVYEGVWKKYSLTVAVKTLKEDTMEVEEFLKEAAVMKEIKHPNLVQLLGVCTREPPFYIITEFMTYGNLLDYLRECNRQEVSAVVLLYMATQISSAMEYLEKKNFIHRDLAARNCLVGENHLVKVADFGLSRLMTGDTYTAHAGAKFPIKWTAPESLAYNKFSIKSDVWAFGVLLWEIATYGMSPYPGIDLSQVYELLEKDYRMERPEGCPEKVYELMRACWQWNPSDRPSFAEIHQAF
Method: (§1) Purified Rh-(Crk-II)-Fl prepared as described in Example I was treated with either full length recombinant (Baculovirus/SF9) mouse c-Abl or a GST fusion of mouse c-Abl containing only the SH2 and kinase domains (expressed in E. coli BL21 essentially as described (19)). In a typical experiment, the appropriate c-Abl construct was incubated in reaction buffer (2 mM DTT, 0.2 mg/ml BSA, 10 mM Mg^2+, 50 mM Tris, pH 7.4, either with or without ATP (500 μM)) for 5 min at 30° C. before addition of Rh-(Crk-II)-Fl (final concentration=0.25 μM). In order to ensure that equal amounts of active c-Abl enzyme were added to each reaction, preliminary titration experiments were carried out using an optimized peptide substrate for c-Abl (EAIYAAPFAKKK (SEQ ID No:2) (20)). […] In all cases, aliquots of the reaction mixtures were removed at ˜1 min and 60 min, quenched with EDTA (final conc.=40 mM), and then analyzed by native-PAGE and/or Western blotting and fluorescence spectroscopy. […]
(§2) Fluorescence Spectroscopy. […] Excitation was at 490 nm with a 2.5 nm slit and the fluorescence emission was monitored at 520 nm and 580 nm through a 4 nm slit. […] Rh-(Crk-II)-Fl was treated with full length recombinant c-Abl and aliquots of the reaction mixture were analyzed by fluorescence spectroscopy and western blotting at ˜1 min and 60 min time-points. […]

[2] = biological target: T2, N-SH3 domain of Crk-II (binding to c-Abl) (Mus musculus, UniProt Q64010); assay: Peptide inhibition study: Crk-II phosphorylation by full length c-Abl in presence of N-SH3 ligand (Rh-(Crk-II)-Fl biosensor); format: biochemical; conditions: fluorescence-based assay
T2 construct: extra Gly plus fluorescein peptide (Cys-Fl-PS, remainder after PreScission site) (C); made in house; host or cells: E. coli BL21 (Crk-II-intein fusion), then ligation of synthetic peptides
Method: as §1, §2

T2 sequence (Q64010 with tags, fused parts or gaps): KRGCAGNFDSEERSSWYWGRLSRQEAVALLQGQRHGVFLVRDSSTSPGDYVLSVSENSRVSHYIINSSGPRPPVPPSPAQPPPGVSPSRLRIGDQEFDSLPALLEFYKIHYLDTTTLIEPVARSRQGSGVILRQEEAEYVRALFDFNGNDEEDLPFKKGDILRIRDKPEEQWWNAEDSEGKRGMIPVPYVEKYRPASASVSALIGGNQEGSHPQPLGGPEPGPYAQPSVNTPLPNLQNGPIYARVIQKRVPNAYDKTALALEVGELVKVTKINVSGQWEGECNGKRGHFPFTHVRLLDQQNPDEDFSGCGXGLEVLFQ

phosphorylation of optimized peptide substrate [1]	effect on Crk-II phosphorylation by c-Abl [2]	Substance
completely phosphorylated	–	EAIYAAPFAKKK (Peptide Substrate) [optimized peptide substrate for c-Abl, reference compound]
–	partially inhibit Crk-II phosphorylation	PPPALPPKRRR-NH2 [high affinity N-SH3 ligand]
